T1: GFP-9S library array, motif 4 ND N98S;D124Q (synthetic construct, N98S;D124Q)
T1 chain: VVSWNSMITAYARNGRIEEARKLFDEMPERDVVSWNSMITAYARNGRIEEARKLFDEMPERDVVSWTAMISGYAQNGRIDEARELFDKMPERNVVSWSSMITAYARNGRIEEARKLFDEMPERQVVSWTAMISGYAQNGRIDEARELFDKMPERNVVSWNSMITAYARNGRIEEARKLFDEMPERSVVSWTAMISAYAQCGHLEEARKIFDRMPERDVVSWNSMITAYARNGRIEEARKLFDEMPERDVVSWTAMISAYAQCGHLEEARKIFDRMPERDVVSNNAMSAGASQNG

T2: GFP-9S library array, motif 4 ND N98V;D124S (synthetic construct, N98V;D124S)
T2 chain: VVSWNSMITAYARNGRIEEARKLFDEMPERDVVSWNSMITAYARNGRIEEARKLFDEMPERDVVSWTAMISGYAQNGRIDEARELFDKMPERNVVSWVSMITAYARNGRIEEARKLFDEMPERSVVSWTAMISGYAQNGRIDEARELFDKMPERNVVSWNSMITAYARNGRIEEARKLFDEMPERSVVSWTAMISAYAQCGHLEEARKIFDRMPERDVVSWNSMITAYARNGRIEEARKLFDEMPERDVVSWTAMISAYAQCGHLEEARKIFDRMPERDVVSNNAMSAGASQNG

T3: GFP-9S library array, motif 4 ND N98A;D124C (synthetic construct, N98A;D124C)
T3 chain: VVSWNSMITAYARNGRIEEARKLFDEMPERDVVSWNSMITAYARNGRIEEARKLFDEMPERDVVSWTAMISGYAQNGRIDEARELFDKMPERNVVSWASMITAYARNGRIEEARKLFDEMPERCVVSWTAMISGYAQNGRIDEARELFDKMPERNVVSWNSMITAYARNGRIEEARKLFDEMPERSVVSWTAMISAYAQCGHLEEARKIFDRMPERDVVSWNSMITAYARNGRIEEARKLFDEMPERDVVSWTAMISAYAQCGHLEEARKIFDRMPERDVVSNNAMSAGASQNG

T4: GFP-9S library array, motif 4 ND N98K;D124T (synthetic construct, N98K;D124T)
T4 chain: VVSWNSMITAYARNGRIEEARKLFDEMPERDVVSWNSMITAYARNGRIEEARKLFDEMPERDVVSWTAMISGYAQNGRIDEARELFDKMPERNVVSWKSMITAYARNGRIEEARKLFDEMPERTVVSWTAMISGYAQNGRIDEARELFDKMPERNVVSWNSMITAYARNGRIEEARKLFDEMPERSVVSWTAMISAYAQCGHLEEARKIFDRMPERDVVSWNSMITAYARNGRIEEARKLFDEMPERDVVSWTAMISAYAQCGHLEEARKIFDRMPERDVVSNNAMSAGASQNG

T5: GFP-9S library array, motif 4 ND N98T;D124Q (synthetic construct, N98T;D124Q)
T5 chain: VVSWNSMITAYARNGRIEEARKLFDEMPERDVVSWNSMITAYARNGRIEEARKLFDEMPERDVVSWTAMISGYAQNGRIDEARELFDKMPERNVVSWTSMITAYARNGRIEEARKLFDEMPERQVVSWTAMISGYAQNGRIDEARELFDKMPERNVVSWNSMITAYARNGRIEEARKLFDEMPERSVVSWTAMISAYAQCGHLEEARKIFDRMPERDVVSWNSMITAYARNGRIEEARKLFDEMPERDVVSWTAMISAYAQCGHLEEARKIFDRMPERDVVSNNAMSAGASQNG


Key:
Assay in all cases: high-throughput RNA pulldown from lysate on Ni-NTA beads; HRP: 50 mM Tris pH 8, 150 mM NaCl, 1 mM beta-mercaptoethanol, 50 ug/ml BSA, 3 ug/ml yeast RNA, 0.5% heparin; ITC and FP: Tris pH 8, 200 mM KCl, 5% glycerol; MST: 50 mM Tris pH 8, 200 mM NaCl, 1 mM DTT, BSA, heparin, 0.05% Tween 20
Conditions in all cases: tags: N-terminal His-eGFP
[1] = biological target: T1, GFP-9S library array, motif 4 ND …
[2] = biological target: T2, GFP-9S library array, motif 4 ND …
[3] = biological target: T3, GFP-9S library array, motif 4 ND …
[4] = biological target: T4, GFP-9S library array, motif 4 ND …
[5] = biological target: T5, GFP-9S library array, motif 4 ND …

| Binder | Kd ([1]; label: 5' Cy5) [nM] | Kd ([2]; label: 5' Cy5) [nM] | Kd ([3]; label: 5' Cy5) [nM] | Kd ([4]; label: 5' Cy5) [nM] | Kd ([5]; label: 5' Cy5) [nM] | Kd ([1]; label: 5' IRDye 800CW) [nM] | Kd ([2]; label: 5' IRDye 800CW) [nM] | Kd ([3]; label: 5' IRDye 800CW) [nM] | Kd ([4]; label: 5' IRDye 800CW) [nM] | Kd ([5]; label: 5' IRDye 800CW) [nM] |
| --- | --- | --- | --- | --- | --- | --- | --- | --- | --- | --- |
| AUUACACGUGA (ssRNA) [Cy5-rpoA] | 95.2 | 69.5 | 112 | 76.8 | 157 |  |  |  |  |  |
| AUUAUACGUGA (ssRNA) [IR-rpoA-U] |  |  |  |  |  | 179 | 50.3 | 92.2 | 212 | 194 |
| AUUAAACGUGA (ssRNA) [IR-rpoA-A] |  |  |  |  |  | 40.3 | 26.8 | 163 | 211 | 107 |
| AUUAGACGUGA (ssRNA) [Cy5-rpoA-G] | 39.2 | 50.4 | 73.1 | 83.6 | 128 |  |  |  |  |  |
